According to US20160368993A1 (University of California, published 2016):

Target: T1, αvβ6 integrin (R&D Systems), immobilized (UniProt P06756 31-992; P18564 22-707)
T1 construct: Bought protein captured on the plate by the anti-αv antibody P2W7; also called immobilized αvβ6 integrin
Assay: competitive binding ELISA against biotinylated fibronectin on immobilized αvβ6 integrin
Protocol: Separate competitive binding ELISAs were used to determine the binding affinity of the anti-αᵥβ₆ diabody and Cys-diabody relative to biotinylated fibronectin, a known natural ligand of the αᵥβ₆ integrin. Biotinylation of fibronectin was performed according to the manufacturer's instructions (Amersham Biosciences). The P2W7 antibody (anti-αᵥ, 5 μg/mL, Abcam) was plated into wells (50 μL/well) of a 96-well plate (Maxisorp®, Nunc). The plate was incubated at 37° C. for 1 h then washed with PBS (3×). After washing, the wells were blocked with blocking buffer (PBS, 5% bovine serum albumin (BSA), 1% Tween 20) and the plate was incubated at room temperature for 3 hrs, followed by washing with PBS (3×). The αᵥβ₆ integrin (3 μg/mL, R&D Systems) in conjugate buffer (20 mM Tris, 1 mM MnCl2, 150 mM NaCl, 0.1% Tween, 1% BSA) was added to the wells (50 μL/well). The plate was incubated at room temperature for 1 h and washed with wash buffer (20 mM Tris, 1 mM MnCl2, 150 mM NaCl, 0.1% Tween, 3×). […] Extravidin HRP conjugate was detected using 3,3′,5,5′-tetramethylbenzidine (TMB) substrate (50 μL/well) for 10-15 mins at room temperature. The reaction was terminated by the addition of 1N sulfuric acid (50 μL/well) and the absorbance of each well was measured in a Multiscan Ascent plate reader (Thermo) at 450 nm. […]

T1 sequence (P06756 31-992, chain 1 of 2): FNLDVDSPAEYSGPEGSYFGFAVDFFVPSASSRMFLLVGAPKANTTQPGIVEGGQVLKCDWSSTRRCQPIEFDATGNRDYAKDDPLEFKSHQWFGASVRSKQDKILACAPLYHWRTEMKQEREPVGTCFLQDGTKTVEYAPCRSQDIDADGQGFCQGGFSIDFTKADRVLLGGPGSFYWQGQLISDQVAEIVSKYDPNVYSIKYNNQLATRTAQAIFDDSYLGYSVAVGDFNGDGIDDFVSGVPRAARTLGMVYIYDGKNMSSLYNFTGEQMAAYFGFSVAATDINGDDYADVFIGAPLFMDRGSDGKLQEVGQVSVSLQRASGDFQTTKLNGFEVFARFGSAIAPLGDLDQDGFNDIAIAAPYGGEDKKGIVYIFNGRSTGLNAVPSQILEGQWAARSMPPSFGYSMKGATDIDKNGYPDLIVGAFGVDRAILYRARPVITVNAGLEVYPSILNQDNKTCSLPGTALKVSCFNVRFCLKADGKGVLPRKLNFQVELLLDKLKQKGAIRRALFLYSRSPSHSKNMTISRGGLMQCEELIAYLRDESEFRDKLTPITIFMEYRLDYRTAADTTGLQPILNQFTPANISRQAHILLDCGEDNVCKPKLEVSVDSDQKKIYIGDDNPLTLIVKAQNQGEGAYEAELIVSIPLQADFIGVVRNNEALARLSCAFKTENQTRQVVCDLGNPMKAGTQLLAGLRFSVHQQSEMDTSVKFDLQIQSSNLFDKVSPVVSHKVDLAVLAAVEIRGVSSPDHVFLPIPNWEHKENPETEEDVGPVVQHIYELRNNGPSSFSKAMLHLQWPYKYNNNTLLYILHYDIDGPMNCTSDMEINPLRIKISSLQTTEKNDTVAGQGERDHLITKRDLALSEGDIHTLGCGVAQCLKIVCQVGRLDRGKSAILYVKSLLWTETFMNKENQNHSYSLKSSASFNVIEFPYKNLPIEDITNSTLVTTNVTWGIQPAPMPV
T1 sequence (P18564 22-707, chain 2 of 2): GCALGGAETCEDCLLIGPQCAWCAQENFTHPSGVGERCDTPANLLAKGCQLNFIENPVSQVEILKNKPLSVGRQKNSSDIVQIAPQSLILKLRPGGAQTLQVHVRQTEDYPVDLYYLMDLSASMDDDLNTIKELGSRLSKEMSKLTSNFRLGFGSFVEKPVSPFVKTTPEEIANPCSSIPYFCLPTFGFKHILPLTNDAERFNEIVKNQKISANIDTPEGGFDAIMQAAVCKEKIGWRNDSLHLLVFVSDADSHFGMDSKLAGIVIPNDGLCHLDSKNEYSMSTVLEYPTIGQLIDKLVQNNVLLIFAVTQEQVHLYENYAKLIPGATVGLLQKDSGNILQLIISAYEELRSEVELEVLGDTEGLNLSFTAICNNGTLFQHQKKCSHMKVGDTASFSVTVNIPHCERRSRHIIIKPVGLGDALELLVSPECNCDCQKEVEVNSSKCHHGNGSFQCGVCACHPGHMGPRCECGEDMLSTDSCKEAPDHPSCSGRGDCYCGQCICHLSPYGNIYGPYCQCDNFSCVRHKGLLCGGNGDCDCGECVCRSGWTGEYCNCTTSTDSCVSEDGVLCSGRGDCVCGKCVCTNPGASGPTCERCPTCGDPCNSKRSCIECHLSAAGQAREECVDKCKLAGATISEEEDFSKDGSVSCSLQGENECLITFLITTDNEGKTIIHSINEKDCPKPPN

| IC50 [pM] | Binder |
| --- | --- |
| 600 | anti-αvβ6 Cys-diabody (other, C-terminal engineered cysteines of the two chains form an interchain disulfide, Covalent dimer; also called disulfide-stabilized anti-αvβ6 Cys-diabody; B6DiaR-G2S-Cys) scFv: EVQLVESGGGLVQPGGSLRLSCAASGFTFSRYVMSWVRQAPGKGLEWVASISSGGRMYYPDTVKGRFTISRDNAKNSLYLQMNSLRAEDTAVYYCARGSIYDGYYVFPYWGQGTLVTVSSGGSEIVLTQSPATLSLSPGERATLSCSASSSVSSSYLYWYQQKPGQAPRLLIYSTSNLASGIPARFSGSGSGTDFTLTISSLEPEDFAVYYCHQWSTYPPTFGGGTKVEIKHHHHHHGGC |
| 800 | anti-αvβ6 diabody (other, Non-covalent dimer of two VH-G2S-VL-His6 chains (diabody), secreted from 293-F cells; also called B6DiaR-G2S; parental anti-αvβ6 diabody) scFv: EVQLVESGGGLVQPGGSLRLSCAASGFTFSRYVMSWVRQAPGKGLEWVASISSGGRMYYPDTVKGRFTISRDNAKNSLYLQMNSLRAEDTAVYYCARGSIYDGYYVFPYWGQGTLVTVSSGGSEIVLTQSPATLSLSPGERATLSCSASSSVSSSYLYWYQQKPGQAPRLLIYSTSNLASGIPARFSGSGSGTDFTLTISSLEPEDFAVYYCHQWSTYPPTFGGGTKVEIKHHHHHH |
